Assays:
[1] = surface biotinylation, HEK293; settings: glycan changed form; control: UT-A3 alone
[2] = cycloheximide chase 12 h, Western blot, HEK293; settings: glycan changed form; control: UT-A3 alone
[3] = surface biotinylation, Xenopus oocytes
[4] = FSK-stimulated surface biotinylation, HEK293; settings: glycan lost; control: wild type
[5] = FSK-stimulated total UT-A3, Western blot, HEK293; settings: glycan lost; control: wild type
[6] = glycan lost, control: wild type UT-A3, untreated

B1: UT-A3: ST6GalI co-transfection (protein)
parent chain: MSDHPLKEMSDNNRSPPLPEPLSSRYKLYESELSSPTWPSSSQDTHPALPLLEMPEEKDLRSSDEDSHIVKIEKPNERSKRRESELPRRASAGRGAFSLFQAVSYLTGDMKECKNWLKDKPLVLQFLDWVLRGAAQVMFVNNPLSGLIIFIGLLIQNPWWTIAGALGTVVSTLAALALSQDRSAIASGLHGYNGMLVGLLVAVFSEKLDYYWWLLFPVTFASMACPVISSALSTVFAKWDLPVFTLPFNIALTLYLAATGHYNLFFPTTLVKPASSAPNITWSEIEMPLLLQTIPVGVGQVYGCDNPWTGGVILVALFISSPLICLHAAIGSIVGLLAALTVATPFETIYTGLWSYNCVLSCVAIGGMFYVLTWQTHLLALVCALFCAYTGAALSNMMAVVGVPPGTWAFCLSTLTFLLLTSNNPGIHKLPLSKVTYPEANRIYFLTAKRSDEQKPPNGG
Q: With B1 as the protein, how does the localisation_or_trafficking [1] read?
A: Its localisation_or_trafficking is “increases”.

Q: And the degradation_or_half_life [2]?
A: Its degradation_or_half_life is “increases”.

B2: UT-A3: N279Q (protein)
parent chain: B1 parent chain
Q: Which localisation_or_trafficking [3, 6] does the source give for B2 here?
A: The localisation_or_trafficking was “decreases”.

Q: What about the “localisation_or_trafficking, other: % increase by FSK” value [4] of the same protein?
A: Its value is “decreases”.

Q: What about the “expression_or_secretion, other: % increase by FSK” value [5] of the same protein?
A: The value was “decreases”.

B3: UT-A3: ST3GalIV co-transfection (protein)
parent chain: B1 parent chain
Q: Which localisation_or_trafficking [1] does the source give for B3 here?
A: The localisation_or_trafficking was “no change”.

B4: UT-A3: ST6GalI cRNA co-injection (protein)
parent chain: B1 parent chain
Q: With B4 as the protein, how does the localisation_or_trafficking ([3]; glycan changed form, control: UT-A3 cRNA alone) read?
A: The localisation_or_trafficking was “increases”.

B5: UT-A3: tunicamycin (protein)
parent chain: B1 parent chain
Q: Which localisation_or_trafficking [3, 6] does the source give for B5 here?
A: Its localisation_or_trafficking is “decreases”.
